Laboratory results: patent publication EP2161338A1

How the values were obtained:
[1] = target: DNAX Leukocyte Associated Immunoglobulin-like Receptor (DLAIR-1), the DX26 antigen, product of the YE01 gene (human) (UniProt Q6GTX8); test: flow cytometry on HL60 promyeloid tumor cells (DLAIR-positive), PE goat-anti-mouse-IgG second step
[2] = target: DNAX Leukocyte Associated Immunoglobulin-like Receptor (DLAIR-1), the DX26 antigen, product of the YE01 gene (human) (UniProt Q6GTX8); test: flow cytometry on Molt4 T cell tumor cells (DLAIR-positive), PE goat-anti-mouse-IgG second step
[3] = target: DNAX Leukocyte Associated Immunoglobulin-like Receptor (DLAIR-1), the DX26 antigen, product of the YE01 gene (human) (UniProt Q6GTX8); test: flow cytometry on CEM T cell tumor cells (DLAIR-positive), PE goat-anti-mouse-IgG second step
[4] = target: DNAX Leukocyte Associated Immunoglobulin-like Receptor (DLAIR-1), the DX26 antigen, product of the YE01 gene (human) (UniProt Q6GTX8); test: flow cytometry on Peer T cell tumor cells (DLAIR-positive), PE goat-anti-mouse-IgG second step
[5] = target: DNAX Leukocyte Associated Immunoglobulin-like Receptor (DLAIR-1), the DX26 antigen, product of the YE01 gene (human) (UniProt Q6GTX8); test: flow cytometry on U937 myeloid tumor cells (DLAIR-positive), PE goat-anti-mouse-IgG second step
[6] = target: DNAX Leukocyte Associated Immunoglobulin-like Receptor (DLAIR-1), the DX26 antigen, product of the YE01 gene (human) (UniProt Q6GTX8); test: flow cytometry on Jurkat T cell tumor cells (DLAIR-positive), PE goat-anti-mouse-IgG second step
[7] = target: DNAX Leukocyte Associated Immunoglobulin-like Receptor (DLAIR-1), the DX26 antigen, product of the YE01 gene (human) (UniProt Q6GTX8); test: flow cytometry on U937 myeloid tumor cells, PE goat-anti-mouse-IgG second step
[8] = target: DNAX Leukocyte Associated Immunoglobulin-like Receptor (DLAIR-1), the DX26 antigen, product of the YE01 gene (human) (UniProt Q6GTX8); test: flow cytometry on CEM T cell tumor cells, PE goat-anti-mouse-IgG second step
[9] = target: DNAX Leukocyte Associated Immunoglobulin-like Receptor (DLAIR-1), the DX26 antigen, product of the YE01 gene (human) (UniProt Q6GTX8); test: flow cytometry on HL60 promyeloid tumor cells, PE goat-anti-mouse-IgG second step
[10] = target: DNAX Leukocyte Associated Immunoglobulin-like Receptor (DLAIR-1), the DX26 antigen, product of the YE01 gene (human) (UniProt Q6GTX8); test: flow cytometry on Peer T cell tumor cells, PE goat-anti-mouse-IgG second step
[11] = target: DNAX Leukocyte Associated Immunoglobulin-like Receptor (DLAIR-1), the DX26 antigen, product of the YE01 gene (human) (UniProt Q6GTX8); test: flow cytometry on Molt4 T cell tumor cells, PE goat-anti-mouse-IgG second step
[12] = target: DNAX Leukocyte Associated Immunoglobulin-like Receptor (DLAIR-1), the DX26 antigen, product of the YE01 gene (human) (UniProt Q6GTX8); test: flow cytometry on Jurkat T cell tumor cells, PE goat-anti-mouse-IgG second step
[13] = target: DNAX Leukocyte Associated Immunoglobulin-like Receptor (DLAIR-1), the DX26 antigen, product of the YE01 gene (human) (UniProt Q6GTX8); test: flow cytometry on HUT78 T cell tumor cells, PE goat-anti-mouse-IgG second step

Substance	mean fluorescence intensity (mean fluorescence intensity) [1]	mean fluorescence intensity (mean fluorescence intensity) [2]	mean fluorescence intensity (mean fluorescence intensity) [3]	mean fluorescence intensity (mean fluorescence intensity) [4]	mean fluorescence intensity (mean fluorescence intensity) [5]	mean fluorescence intensity (mean fluorescence intensity) [6]	mean fluorescence intensity (mean fluorescence intensity) [7]	mean fluorescence intensity (mean fluorescence intensity) [8]	mean fluorescence intensity (mean fluorescence intensity) [9]	mean fluorescence intensity (mean fluorescence intensity) [10]	mean fluorescence intensity (mean fluorescence intensity) [11]	mean fluorescence intensity (mean fluorescence intensity) [12]	mean fluorescence intensity (mean fluorescence intensity) [13]
control IgG1 (antibody)	< 5	< 5	< 5	< 5	< 5	< 5	–	–	–	–	–	–	–
DX26 monoclonal antibody	–	–	–	–	–	–	49.5	92.7	46.9	29.1	30.7	47.1	25.8
